According to patent publication US7670806B2, “ADP-ribosyl acceptor hydrolase 3 (ARH3) polypeptides and methods of use” (The United States of America as represented by the …, priority 2005, dated 2010):
Changes are numbered by the printed parent chain. Names may count otherwise.

B1: mouse ARH3: murine ARH3 amino acid sequence SEQ ID NO: 6 (protein, listed as Mus musculus)
chain: MAVAAAAAATAMSAAGGGGASAARSISRFRGCLAGALLGDCVGAVYEAHDTVSLASVLSHVESLEPDPGTPGSARTETLYYTDDTAMTRALVQSLLAKEAFDEVDMAHRFAQEYKKDPDRGYGAGVITVFKKLLNPKCRDVYEPARAQFNGKGSYGNGGAMRVAGISLAYSSVQDVQKFARLSAQLTHASSLGYNGAILQALAVHLALQGVSSSEHFLEQLLGHMEELEGDAQSVLDAKELGMEERPYSSRLKKVGELLDQDVVSREEVVSELGNGIAAFESVPTAIYCFLRCMEPHPEIPSTFNSLQRTLIYSISLGGDTDTIATMAGAIAGAYYGMEQVPESWQQSCEGFEETDVLAQSLHRVFQESS
B2: ARH2: recombinant mouse or human ARH2, structurally related 39-kDa ADP-ribose-binding protein (protein, listed as Homo sapiens)
chain: MEKFKAAMLLGSVGDALGYRNVCKENSTVGMKIQEELQRSGGLDHLVLSPGEWPVSDNTIMHIATAEALTTDYWCLDDLYREMVRCYVEIVEKLPERRPDPATIEGCAQLKPNNYLLAWHTPFNEKGSGFGAATKAMCIGLRYWKPERLETLIEVSVECGRMTHNHPTGFLGSLCTALFVSFAAQGKPLVQWGRDMLRAVPLAEEYCRKTIRHTAEYQEHWFYFEAKWQFYLEERKISKDSENKAIFPDNYDAEEREKTYRKWSSEGRGGRRGHDAPMIAYDALLAAGNSWTELCHRAMFHGGESAATGTIAGCLFGLLYGLDLVPKGLYQDLEDKEKLEDLGAALYRLSTEEK
B3: human ARH3: human ARH3 amino acid sequence SEQ ID NO: 2, synthesized as GST-fusion product in E. coli (protein, listed as Homo sapiens)
chain: MAAAAMAAAAGGGAGAARSLSRFRGCLAGALLGDCVGSFYEAHDTVDLTSVLRHVQSLEPDPGTPGSERTEALYYTDDTAMARALVQSLLAKEAFDEVDMAHRFAQEYKKDPDRGYGAGVVTVFKKLLNPKCRDVFEPARAQFNGKGSYGNGGAMRVAGISLAYSSVQDVQKFARLSAQLTHASSLGYNGAILQALAVHLALQGESSSEHFLKQLLGHMEDLEGDAQSVLDARELGMEERPYSSRLKKIGELLDQASVTREEVVSELGNGIAAFESVPTAIYCFLRCMEPDPEIPSAFNSLQRTLIYSISLGGDTDTIATMAGAIAGAYYGMDQVPESWQQSCEGYEETDILAQSLHRVFQKS
modifications: GST fusion
B4: ARH3 (E238Q/E239Q): human ARH3 mutant E238Q/E239Q (SEQ ID NO: 4) (protein, listed as Homo sapiens)
chain: B3 chain with E238Q, E239Q
B5: ARH3 (E261Q/E262Q): human ARH3 mutant E261Q/E262Q (SEQ ID NO: 3) (protein, listed as Homo sapiens)
chain: B3 chain with E261Q, E262Q

Legend:
[1] = Poly(ADP-ribose) hydrolysis (autoradiography, high resolution PAGE, HPLC); format: biochemical; conditions: for Poly(ADP-ribose) hydrolysis (in words): [32P]poly(ADP-ribose) or poly(ADP-ribose)PARP, autoradiography / PAGE / HPLC; for Release of [14C]ADP-ribose from [14C]poly(ADP-ribose)PARP relative to wild-type ARH3: 50 nM human ARH3 (wild-type or mutant), ~2 μM ADP-ribose, HPLC C18
Description: Poly(ADP-ribose) hydrolysis by autoradiography. [^32P]poly(ADP-ribose)PARP (500 ng of PARP with poly(ADP-ribose) was incubated (37° C., 2 h) with 2 μM ARH in 25 μl of 50 mM potassium phosphate buffer, pH 7.5, with or without 10 mM MgCl2 and/or 5 mM DTT. Reactions were stopped by adding 6 μl of 5× Laemmli buffer. Samples (20 μl) of proteins were separated by SDS-PAGE in 4-20% gels and transferred to nitrocellulose membranes that were exposed to X-ray film (Kodak) for 10 h.
Hydrolysis of poly(ADP-ribose) by PARG and ARH3. Purified [^32P] poly(ADP-ribose) (5.5×10^5 cpm, ˜300 nM ADP-ribose) was incubated for the indicated time at 37° C. in 25 μl of 50 mM potassium phosphate, pH 7.5, containing 10 mM MgCl2 and 5 mM DTT with enzyme or other additions as indicated and terminated by addition of 25 μl of 2× electrophoresis buffer (Invitrogen). [^32P]AMP was generated by incubation (37° C., 3 h) of 10 μM [^32P] NAD (10 μCi/reaction) with pyrophosphatase (40 units/mg from SIGMA, 1 mg/ml) in 25 μl of 50 mM KPO4, pH 7.5, and 10 mM MgCl2. [^32P] ADP-ribose was generated in a 25 μl mixture containing 50 mM KPO4, pH 7.5, 25 μg of activated CTA, 10 μM [^32P] NAD (10 μCi/reaction), 10 mM MgCl2, and 5 mM DTT, which was incubated at 30° C. overnight. [^32P] phosphoribosyl-AMP was generated by incubation (37° C., 3 h) of [^32P]poly(ADP-ribose) (5.5×10^5 cpm, ˜300 nM ADP-ribose) with Crotalus adamanteus phosphodiesterase (10 mU/reaction), 25 μl of 50 mM KPO4, pH 7.5, 10 mM MgCl2, and 5 mM DTT. Identities of AMP and ADP-ribose standards were confirmed by HPLC on C18 and SAX columns respectively.
High resolution Polyacrylamide Gel Electrophoresis (PAGE). Polyacrylamide (20%) gels (20×20×0.15 cm) containing polyacrylamide and bis(acrylamide), in a ratio of 19:1, 100 mM Tris-borate, pH 8.3, 2 mM EDTA, 4.4 mM ammonium persulfate, and 3.4 mM TEMED with electrophoresis carried out for 2 h at 400V with 50 mM Tris-borate, pH 8.3, 1 mM EDTA, before application of samples (15 μl) were used for analysis of poly(ADP-ribose) degradation. Subsequent electrophoresis at 400V was stopped when bromophenol blue (BPB) had moved 9 cm from the origin. Gels were exposed to X-ray films (Kodak).
HPLC analysis. HPLC, Hewlett-Packard series 1100 equipped with a diode-array spectrophotometric detector set at 254 nm, was used for separation of reaction products. For anion exchange perfusion chromatography, Zorbax SAX column (4.6×250 mm; DuPont, Wilmington Del.) was washed with 20 mM potassium phosphate, pH 4.5, for 30 min, followed by a linear gradient of 0-1M NaCl in the same buffer for 10 min (30-40 min), then same buffer with 1M NaCl for 10 min (40-50 min) at a flow rate of 1 ml/min. Nicotinamide was eluted at 3 min, NAD at 10 min, and ADP-ribose at 40 min. For reverse phase, Discovery C18 column (4.6×250 mm; SUPELCO, Bellefonte Pa.) was used. Samples were separated isocratically with 100 mM potassium phosphate, pH 6.0 containing 7% methanol at a same flow rate of 1 ml/min. ADP-ribose was eluted at 6 min, NAD at 8 min, nicotinamide 9 min.
Poly(ADP-ribose)PARP was used as substrate to assay potential poly(ADP-ribose) hydrolase activities of recombinant ARH1, 2 or 3. Products were identified by autoradiography and HPLC. Fractions (1 ml) were collected for liquid scintillation counting to quantify [^14C]ADP-ribose, which was eluted in fractions from 34 min to 43 min. Because ARH1 activity may require both DTT and Mg^2+, depending on species (Takada et al. (1993) J. Biol. Chem. 268:17837-17843; Moss et al. (1992) J. Biol. Chem. 267:10481-10488), these reactions were performed with or without 10 mM MgCl2, and/or 5 mM DTT. […] Degradation of [^32P]poly(ADP-ribose) by ARH3 was enhanced by 10 mM MgCl2 (FIG. 4A). Data were similar with mouse ARH3.
Samples of [^14C] ADP-ribosylated PARP (250 ng, 15,000 cpm, ˜850 nM ADP-ribose) were incubated at 37° C. (total volume, 100 μl) with human ARH3 as indicated. […]

[2] = Hydrolysis of O-acetyl-[14C]ADP-ribose by ARH proteins / PARG (RP-HPLC); format: biochemical; conditions: 1.5 pmol wild type or mutant human ARH3 or 20 mU PARG, 2 h at 30° C.; mouse ARH1, 2, 3
Description: FIG. 13A is a graph illustrating the results from incubation of 1.5 pmol of mouse ARH3 with or without 5 mM DTT and/or 10 mM MgCl2 as described in FIG. 11B with incubation for 1 h at 30° C. FIG. 13B is a graph illustrating the results from incubation of 1.5 pmol of wild type or mutant human (D77-78) ARH3 or 20 mU of PARG for 2 h at 30° C. *D77,78, assays incubated with 15 pmol of mutant human ARH3 (D77, D78).
FIG. 14A is a graph of the results from incubation with the indicated amount of mouse ARH1, 2, or 3 for 2 h at 30° C. FIG. 14B is a graph of the results from incubation with 230 pmol of mouse ARH1 at 30° C. for the indicated time.
Mouse ARH3 (2 pmol) and 2.5 μM O-acetyl-[^14C]ADP-ribose (5,000 cpm) in 200 μl of buffer containing 50 mM potassium phosphate (pH 7.0), 10 mM MgCl2 and 5 mM DTT were incubated for 2 h at 30° C., before separation of substrate and products using RP-HPLC as described below.
Hydrolysis of O-acetyl-[^14C]ADP-ribose catalyzed by ARH3. Assays containing the indicated concentration of O-acetyl-[^14C]-ADP-ribose (0.1 to 2 nmol, 1,000 to 20,000 cpm) and 1.5 pmol of ARH3 in 200 μl of buffer (50 mM KPO4 (pH 7.0), 10 mM MgCl2, 5 mM DTT) were incubated at 30° C. for 20 min. Substrate and products were separated using RP-HPLC. Amounts of product were corrected for ADP-ribose produced in the absence of ARH3 before calculation of hydrolysis rates.
Because O-acetyl-ADP-ribose was known to be hydrolyzed at alkaline pH Tanny and Moazed (2001), Proc Natl Acad Sci USA. 98(2):415-20, Epub Dec. 26, 2000), it was generated at pH 7.0 in the presence of [^14C-adenine] β-NAD, Sir2, and acetylated histone H3 peptide (FIG. 11A), and the products of Sir2 and ARH3 were analyzed using reverse-phase HPLC at the same pH (FIGS. 11A,B). The products of the ARH3-catalyzed reaction were also analyzed by high resolution-polyacrylamide gel electrophoresis (FIG. 11C). O-acetyl-[^14C]ADP-ribose hydrolase activity was time and ARH3 dependent (FIG. 12) and essentially completely dependent on Mg^2+ (FIG. 13A).
O-acetyl-ADP-ribose hydrolysis by ARH1 was time and ARH1 dependent (FIG. 14b).

ADP-ribose binding assay = conditions: 1 μM ARH3, 3 μM [14C]ADP-ribose, 30° C., 16 h
Description: ADP-ribose binding assay. [^14C]ADP-ribose was generated by incubation overnight at 30° C. of 80 μM (10 μCi) [adenine-U-^14C]NAD with 50 μl of RT6.2 solution (5 nmol/h NADase activity; gift from Dr. Sunhee Park, NHLBI, National Institutes of Health, Bethesda, Md.) in 250 μl of 50 mM potassium phosphate, pH 7.5, and purified by HPLC using Zorbax Sax column as described above. [^14C]ADP-ribose, eluted at 40 min, was stored at −20° C.
To assess protein binding, 1 μM human wild type or D77N/D78N mutant ARH3 was incubated (30° C., 16 h) with 3 μM [^14C]ADP-ribose in 50 mM potassium phosphate buffer, pH 7.5, without or with 10 mM MgCl2, and/or 5 mM DTT (total volume 100 μl). A sample (90 μl) was applied to a column (0.5×4 cm) of Affi-Gel boronate (100 mg, Bio-Rad) which was equilibrated with 0.1 M glycine, pH 9.0, containing 0.1 M NaCl, with or without 10 mM MgCl2, and/or 5 mM DTT, and eluted with five 1-ml portions of the same solution. The total eluate, containing ARH with bound ADP-ribose was collected for liquid scintillation counting.
After incubation of wild-type or mutant ARH3 (1 μM) with [^14C]ADP-ribose (3 μM) (30° C., 16 h) without or with 10 mM MgCl2 and/or 5 mM DTT (total volume 100 μl), unbound ADP-ribose was removed by binding to Affi-gel boronate (Bio-Rad), and ARH3 with ADP-ribose bound, was collected for radioassay. […]

Molecule	Poly(ADP-ribose) hydrolysis (in words) ([1]; 37° C.)	O-acetyl-ADP-ribose hydrolysis (in words) [2]	Substrate remaining, [14C]poly(ADP-ribose)PARP ([1]; 40 nM hydrolase, 60 min, 37° C.)	Release of [14C]ADP-ribose from [14C]poly(ADP-ribose)PARP relative to wild-type ARH3 [1]	[14C]ADP-ribose binding (ADP-ribose binding assay)
B1	similar				
B2	did not	appeared to be inactive			
B3	hydrolyzed		~75%	100%	similar
B4	catalytic activities similar to that of the wild-type enzyme	rate similar to wild type		~97%	
B5	catalytic activities similar to that of the wild-type enzyme	rate similar to wild type		~98%	
